Bridge positions count the residues as written; N and C are the ends. Square brackets hold non-standard residues; d marks the D form. Ends that are not written are not given here. S5 = C=CCCC[C@](C)(N)C(=O)O
Assays:
native VLCAD = target: T1, native VLCAD (Mus musculus, UniProt P50544); assay: Biotinylated SAHB pulldown from MEF lysates, anti-VLCAD Western analysis; format: binding; conditions: for summary of binding properties: binding to VLCAD: pull-downs and ITC
T1 construct: As for native VLCAD from MEF lysates; endogenous in cells; host or cells: SV-40-transformed wild-type mouse embryonic fibroblasts (lysate)
T1 sequence (P50544 42-656): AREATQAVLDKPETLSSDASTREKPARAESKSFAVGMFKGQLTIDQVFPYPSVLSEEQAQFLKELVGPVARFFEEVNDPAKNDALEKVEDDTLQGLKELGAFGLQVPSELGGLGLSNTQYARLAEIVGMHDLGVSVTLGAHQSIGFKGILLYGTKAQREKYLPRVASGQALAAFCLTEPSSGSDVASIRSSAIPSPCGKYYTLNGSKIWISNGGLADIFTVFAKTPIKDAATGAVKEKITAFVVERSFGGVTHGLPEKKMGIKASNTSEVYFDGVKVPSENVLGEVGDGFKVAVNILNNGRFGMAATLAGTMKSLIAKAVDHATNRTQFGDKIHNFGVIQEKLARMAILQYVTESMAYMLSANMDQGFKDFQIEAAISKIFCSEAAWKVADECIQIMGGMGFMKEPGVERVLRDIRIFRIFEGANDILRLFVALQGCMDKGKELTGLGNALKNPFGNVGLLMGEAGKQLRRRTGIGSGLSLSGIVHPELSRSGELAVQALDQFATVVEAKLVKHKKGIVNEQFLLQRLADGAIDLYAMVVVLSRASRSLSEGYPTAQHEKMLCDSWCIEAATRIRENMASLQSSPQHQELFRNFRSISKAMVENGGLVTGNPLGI
Text: To validate the MS result, the pulldowns were repeated and eluates run on a gel for anti-VLCAD Western blot analysis. […] All peptides faithfully recapitulated native BH3-binding propensities for endogenous MCL-1 protein (FIG. 8). The eluates were then probed for the other members of the acyl-CoA dehydrogenase family that manifest shorter fatty acid substrate specificities. MCL-1 SAHBD was able to pull down VLCAD, but not MCAD or SCAD (FIG. 9). Because the traditional MCL-1 staple location differs from that of the BIM, BID, and BAD SAHBs, it was important to confirm that the observed VLCAD binding specificity was due to BH3 sequence selectivity, not staple position. A BIM SAHB with the traditional MCL-1 staple (BIM SAHBF), and a MCL-1 stapled peptide with the traditional BIM staple (MCL-1 SAHBA), were generated. […] To confirm that the selective interaction between MCL-1 SAHBD and VLCAD is direct, recombinant VLCAD was generated and purified by size exclusion chromatography (FIGS. 11 and 12).
The binding determinants for the MCL-1 BH3/VLCAD interaction were investigated by generating a series of biotinylated MCL-1 SAHBD alanine point mutants (FIG. 18A) and performing streptavidin pull-downs from MEF lysates, followed by VLCAD and MCL-1 western analysis of the resulting eluates. […] Native alanines and residues not mutated are colored white. The dotted semicircles highlight the distinctive MCL-1 BH3 binding interfaces for VLCAD versus MCL-1 engagement, as defined by the differential sensitivities to alanine mutagenesis.
(§1) Wild-type MEFs were trypsinized, washed once with cold PBS, and lysed on ice with NP-40 lysis buffer (50 mM Tris, pH 7.4, 150 mM NaCl, 0.5% (v/v) NP-40, complete protease inhibitor pellet (Roche)) using 1 ml of lysis buffer for every 10 million cells lysed. Cellular debris was pelleted at 14,000 g for 10 min at 4° C., and the supernatant was quantified using the BCA Protein Assay Kit (Thermo Fisher Scientific). 2 mg of lysate per pulldown were then exposed to 50 μL of pre-equilibrated High Capacity Streptavidin Agarose beads (Thermo Fisher Scientific). The pre-cleared lysates were then incubated with 15 nmol biotinylated SAHBs (or vehicle, 1.5% (v/v) DMSO) overnight at 4° C., followed by addition of 50 μL of pre-equilibrated High Capacity Streptavidin Agarose beads for 2 hours at 4° C. The beads were then pelleted and washed with NP-40 lysis buffer three times before eluting the protein sample from the beads by heating at 70° C. for 10 min in SDS loading buffer. Samples were then subjected to electrophoresis and either Western analysis or Coomassie stain (SimplyBlue Safe Stain, Thermo Fisher Scientific). The antibodies used for Western analysis were the following: MCL-1 (Rockland 600-401-394; 1:1000 in 3% BSA), VLCAD (Thermo Fisher Scientific PA5-29959; 1:1000 in 1% milk+0.1% Tween-20), MCAD (Thermo Fisher Scientific PA5-27201; 1:1000 in 3% BSA), and SCAD (Abcam ab154823; 1:1000 in 3% BSA). Coomassie stained gels were then processed for proteomics analysis (see below). Biotinylated SAHB pulldowns of recombinant protein were performed as above incubating 5 nmol of SAHB with 10 pmol of rVLCAD in 500 μL total volume. Densitometry analyses were performed using ImageJ software.

endogenous MCL-1 = assay: Biotinylated SAHB pulldown from MEF lysates, anti-MCL-1 Western analysis; format: binding, mouse; conditions: summary, pull-downs
endogenous MCL-1, sequence (P97287 152-308 limits assumed): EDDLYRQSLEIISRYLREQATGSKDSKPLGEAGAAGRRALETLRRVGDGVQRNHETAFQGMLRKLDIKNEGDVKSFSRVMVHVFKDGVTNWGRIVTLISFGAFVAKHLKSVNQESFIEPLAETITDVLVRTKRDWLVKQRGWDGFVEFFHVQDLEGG
Procedure: An exploratory proteomics analysis was conducted to identify proteins that interact with the MCL-1 BH3 domain helix. An extensive library of MCL-1 stapled BH3 peptides (FIG. 2) was generated to both identify novel protein interactors by mass spectrometry and then deploy the stapled peptide constructs as novel probes to dissect and pharmacologically modulate the identified protein interactors and associated signaling pathways. As an example, an N-terminally biotinylated stapled peptide designed based on the sequence of MCL-1's BH3 domain (Btn-MCL-1 SAHBD), or vehicle, was incubated with wild-type mouse embryonic fibroblast (MEF) lysates, followed by high stringency streptavidin capture. To validate the proteomics workflow and ensure that Btn-MCL-1 SAHBD could, in fact, engage protein interactors in a lysate, eluates were first run on a gel for anti-MCL-1 Western analysis. […] For mass spectrometry (MS) analysis, eluates were run on a reducing/denaturing gel followed by Coomassie staining (FIG. 4) and in-gel digestion was performed before injection on the instrument.
The binding determinants for the MCL-1 BH3/VLCAD interaction were investigated by generating a series of biotinylated MCL-1 SAHBD alanine point mutants (FIG. 18A) and performing streptavidin pull-downs from MEF lysates, followed by VLCAD and MCL-1 western analysis of the resulting eluates. […] Native alanines and residues not mutated are colored white.
as §1, with “The pre-cleared lysates were then incubated with 15 nmol biotinylated SAHBs (or vehicle, 1.5% (v/v) DMSO) overnight at 4° C., followed by addition of 50 μL of pre-equilibrated High Capacity Streptavidin Agarose beads for 2 hours at 4° C.” left out, “The antibodies used for Western analysis were the following: MCL-1 (Rockland 600-401-394; 1:1000 in 3% BSA), VLCAD (Thermo Fisher Scientific PA5-29959; 1:1000 in 1% milk+0.1% Tween-20), MCAD (Thermo Fisher Scientific PA5-27201; 1:1000 in 3% BSA), and SCAD (Abcam ab154823; 1:1000 in 3% BSA).” left out

Substance: E211A: biotinylated MCL-1 SAHBD alanine point mutant E211A (RKALATLRRVGDGV[S5]RNH[S5]TAF; staple 15-19; also: biotinylated, place not given here)
- summary of binding properties: binding to VLCAD (native VLCAD): Binds
- summary of binding properties: binding to MCL-1 (endogenous MCL-1): Binds

Substance: G217A: biotinylated MCL-1 SAHBD alanine point mutant G217A (RKALETLRRVADGV[S5]RNH[S5]TAF; staple 15-19; also: biotinylated, place not given here)
- summary of binding properties: binding to VLCAD (native VLCAD): Binds
- summary of binding properties: binding to MCL-1 (endogenous MCL-1): weakly or not

Substance: G219A: biotinylated MCL-1 SAHBD alanine point mutant G219A (RKALETLRRVGDAV[S5]RNH[S5]TAF; staple 15-19; also: biotinylated, place not given here)
- summary of binding properties: binding to VLCAD (native VLCAD): Binds
- summary of binding properties: binding to MCL-1 (endogenous MCL-1): Binds

Substance: H224A: biotinylated MCL-1 SAHBD alanine point mutant H224A (RKALETLRRVGDGV[S5]RNA[S5]TAF; staple 15-19; also: biotinylated, place not given here)
- summary of binding properties: binding to VLCAD (native VLCAD): Does not bind
- summary of binding properties: binding to MCL-1 (endogenous MCL-1): Does not bind

Substance: K208A: biotinylated MCL-1 SAHBD alanine point mutant K208A (RAALETLRRVGDGV[S5]RNH[S5]TAF; staple 15-19; also: biotinylated, place not given here)
- summary of binding properties: binding to VLCAD (native VLCAD): enhanced binding
- summary of binding properties: binding to MCL-1 (endogenous MCL-1): diminished binding

Substance: L210A: biotinylated MCL-1 SAHBD alanine point mutant L210A (RKAAETLRRVGDGV[S5]RNH[S5]TAF; staple 15-19; also: biotinylated, place not given here)
- effect of alanine mutation on biotinylated MCL-1 SAHBD interaction with VLCAD (native VLCAD; pull-downs from MEF lysates): uniquely disruptive
- summary of binding properties: binding to VLCAD (native VLCAD): weakly or not
- summary of binding properties: binding to MCL-1 (endogenous MCL-1): Binds

Substance: T212A: biotinylated MCL-1 SAHBD alanine point mutant T212A (RKALEALRRVGDGV[S5]RNH[S5]TAF; staple 15-19; also: biotinylated, place not given here)
- summary of binding properties: binding to VLCAD (native VLCAD): Binds
- summary of binding properties: binding to MCL-1 (endogenous MCL-1): weakly or not

Substance: T226A: biotinylated MCL-1 SAHBD alanine point mutant T226A (RKALETLRRVGDGV[S5]RNH[S5]AAF; staple 15-19; also: biotinylated, place not given here)
- summary of binding properties: binding to VLCAD (native VLCAD): diminished binding
- summary of binding properties: binding to MCL-1 (endogenous MCL-1): diminished binding

Substance: V216A: biotinylated MCL-1 SAHBD alanine point mutant V216A (RKALETLRRAGDGV[S5]RNH[S5]TAF; staple 15-19; also: biotinylated, place not given here)
- summary of binding properties: binding to VLCAD (native VLCAD): Binds
- summary of binding properties: binding to MCL-1 (endogenous MCL-1): weakly or not

— patent US12366576B2, “Compositions, assays, and methods for direct modulation of fatty acid metabolism” (Dana-Farber Cancer Institute, Inc., priority 2016, dated 2025)
